In patent publication US20240254227A1 (Alector, published 2024):
Substitutions are numbered along the chain they refer to.

How the values were obtained:
[1] = biological target: T1, murine CD300D-Fc (mouse); assay: SPR (Carterra LSA), antibody immobilised
T1 construct: mouse IgG2a-Fc fusion (R&D Systems); the entry is the whole fusion chain; also called mCD300D; Mouse CD300D-Fc
T1 chain: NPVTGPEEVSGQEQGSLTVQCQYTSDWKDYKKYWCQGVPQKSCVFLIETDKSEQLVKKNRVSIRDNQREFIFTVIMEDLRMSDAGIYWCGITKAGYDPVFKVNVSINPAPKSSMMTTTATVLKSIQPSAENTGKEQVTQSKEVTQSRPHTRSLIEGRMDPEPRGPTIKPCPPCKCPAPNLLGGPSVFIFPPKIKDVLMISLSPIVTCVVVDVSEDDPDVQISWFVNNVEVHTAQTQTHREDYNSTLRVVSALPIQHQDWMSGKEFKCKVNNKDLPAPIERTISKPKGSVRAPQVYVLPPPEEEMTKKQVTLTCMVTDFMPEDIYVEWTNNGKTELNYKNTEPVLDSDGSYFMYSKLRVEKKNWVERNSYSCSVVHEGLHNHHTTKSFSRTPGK
Excerpt: (§1) In addition to the screening of antibodies for cross-reactivity by FACS analysis, surface plasmon resonance (SPR) analysis was used to determine the binding of antibodies to recombinant huCD300 and muCD300 family members (orthologs) conjugated to an Fc (human CD300A-Fc SEQ ID NO:144; human CD300LB-Fc SEQ ID NO:145; human CD300C-Fc SEQ ID NO: 146; human CD300D-Fc SEQ ID NO: 147; human CD300E-Fc SEQ ID NO: 148; human CD300F-Fc SEQ ID NO: 149; murine CD300A-Fc SEQ ID NO: 150; murine CD300LB-Fc SEQ ID NO:151; murine CD300C-Fc SEQ ID NO: 152; murine CD300D-Fc SEQ ID NO: 153, and murine CD300E-Fc SEQ ID NO: 154).
(§2) Binding of mouse anti-CD300LB IgG1 antibodies of the present disclosure to human and murine CD300 orthologs were evaluated by surface plasmon resonance (SPR) using a Carterra LSA instrument (Carterra, Salt Lake City, UT). […] A HC200M sensor chip (Carterra) was activated using the single channel flow cell with a 7-minute injection of a 1:1:1 mixture of 100 mM MES pH 5.5, 100 mM sulfo-NHS, 400 mM EDC (all reconstituted in MES pH 5.5; 100 μL of each mixed in vial immediately before running assay). After switching to the multi-channel array flow cell, the antibodies were injected over the activated chip in a 96-spot array for 10 minutes. The remaining unconjugated active groups on the chip were then blocked by injecting 1M Ethanolamine pH 8.5 (Carterra) for 7 minutes using the single channel flow cell. After priming with running buffer (HBS-TE, Carterra) with 0.5 mg/ml BSA (Sigma), the immobilized anti-CD300LB antibodies were tested for their ability to bind human and mouse recombinant CD300LB extracellular domains. Human CD300 family members and mouse CD300A were hIgG1-Fc fusions, while mouse CD300LB, mouse CD300C, mouse CD300D, and mouse CD300E were mouse IgG2a-Fc fusions (R&D Systems). Binding was assessed by injecting each analyte over the entire antibody array using the single channel flow cell. CD300 analytes were diluted to 300 nM or 600 nM in running buffer and injected in series without regeneration. Two or three buffer blanks were run between each mouse or human ortholog, respectively. Data were processed and analyzed using NextGenKIT high-throughput kinetics analysis software (Carterra).

[2] = biological target: T1, murine CD300D-Fc; assay: SPR (Carterra LSA), antibody immobilised, Fc fusion at 300 or 600 nM
[3] = biological target: T2, murine CD300C-Fc (mouse); assay: SPR (Carterra LSA), antibody immobilised
T2 construct: mouse IgG2a-Fc fusion (R&D Systems); the entry is the whole fusion chain; also called mCD300C; Mouse CD300C-Fc
T2 chain: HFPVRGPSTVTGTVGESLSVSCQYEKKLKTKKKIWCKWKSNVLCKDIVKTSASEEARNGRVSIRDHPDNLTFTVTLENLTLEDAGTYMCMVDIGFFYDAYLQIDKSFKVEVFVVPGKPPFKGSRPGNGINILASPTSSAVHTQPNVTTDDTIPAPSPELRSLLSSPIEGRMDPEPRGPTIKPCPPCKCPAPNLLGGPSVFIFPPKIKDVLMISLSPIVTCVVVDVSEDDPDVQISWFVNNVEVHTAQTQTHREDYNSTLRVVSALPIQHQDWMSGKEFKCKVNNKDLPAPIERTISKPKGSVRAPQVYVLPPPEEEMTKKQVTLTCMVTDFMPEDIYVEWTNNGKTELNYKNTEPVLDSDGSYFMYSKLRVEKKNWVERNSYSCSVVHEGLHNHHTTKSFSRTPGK
Excerpt: as §1, §2

[4] = biological target: T3, human CD300E-Fc (human); assay: SPR (Carterra LSA), antibody immobilised
T3 construct: hIgG1-Fc fusion; the entry is the whole fusion chain
T3 chain: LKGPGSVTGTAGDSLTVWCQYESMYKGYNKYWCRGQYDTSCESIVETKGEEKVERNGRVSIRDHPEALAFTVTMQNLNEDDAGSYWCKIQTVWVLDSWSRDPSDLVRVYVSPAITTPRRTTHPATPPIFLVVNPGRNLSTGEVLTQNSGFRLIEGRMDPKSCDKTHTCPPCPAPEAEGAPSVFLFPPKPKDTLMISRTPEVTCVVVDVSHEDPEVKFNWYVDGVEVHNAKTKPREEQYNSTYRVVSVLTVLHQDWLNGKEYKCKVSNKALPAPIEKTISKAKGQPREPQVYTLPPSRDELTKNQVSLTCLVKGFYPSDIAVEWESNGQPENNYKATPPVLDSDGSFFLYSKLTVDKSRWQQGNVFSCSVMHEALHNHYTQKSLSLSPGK
Excerpt: as §1, §2

B1: anti-CD300LB antibody CD-11 (antibody, V domains shown)
VH: QIQLVQSGPEVKKPGETVKISCKASGYTLTDYSMHWVMQTPGTGLKWMAWMNTETGEPTYADDFKGRFAFSLETSAGTAYLQIDNLKNEDTATYFCATYGKSYGMKYWGQGTSVTVSS
VL: DIVLTQSPPSLAVSLGQRATISCRATKSVSPYLHWYQQTPGQPPKLLIYLASNLDSGVPARFSGSGSGTDFTLNIHPVEEEDAATYYCQHNKELPPTFGGGTRLEIK
binding result [1]: no binding (tested: 300 nM or 600 nM) | SPR binding (control subtracted) [2]: -0.1

B2: anti-CD300LB antibody CD-12 (antibody, V domains shown)
VH: QIQLVQSGPELKKPGETVKISCKASGYTFTDYSMHWVRQAPGKGLKWMAWINTETGEATHADDFKGRFDFSLDTSASTAYLQIKNLKNEDTGIYFCVCYGSSYGMDYWGQGTSVTVSS
VL: DIVLTQSPASLPVSLGQRATISCRASKSVRTSGASYMHWYQQKPGQPPKLLIYLASNLKSGVPTRFSGSGSGTDFTLNIHPVEEEDAATYYCQHNREVPPTFGGGTKLEIK
binding result [3]: no binding (tested: 300 nM or 600 nM) | binding result [1]: no binding (tested: 300 nM or 600 nM) | SPR binding (control subtracted) [2]: 0.6

B3: anti-CD300LB antibody CD-15 (antibody, V domains shown)
VH: QIQLVQSGPELKKPGETVKISCQVSGYTFTDYSMHWLKQAPGKGLKWMAWINTETGESTYTDEFKGRFVFSLETSVRTAYLKINNLKNEDTATYFCGTYGSSYGMAYWGQGTSVTVSS
VL: B2 VL with R30S, A34S, M37L, N57K, K59E, T64A, S67R
binding result [1]: no binding (tested: 300 nM or 600 nM) | SPR binding (control subtracted) [2]: 1.7

B4: anti-CD300LB antibody CD-17 (antibody, V domains shown)
VH: QIQLVQSGPELKKPGETVKISCKASGYTLTDYSMHWVKQAPGKGLKWMGWINTETGEPRYGDDFKGRFAFSLETSASSAYLQINNLKNDDTATYFCATYGRSYGMDFWGQGTSVTVSS
VL: B2 VL with P12A, R30S, T31P, A34H, T64A, E85G, V98L, T106S
binding result [3]: no binding (tested: 300 nM or 600 nM) | binding result [1]: no binding (tested: 300 nM or 600 nM) | SPR binding (control subtracted) [2]: 0.8

B5: anti-CD300LB antibody CD-18 (antibody, V domains shown)
VH: DVQLQESGPDLVKPSQSLSLTCTVTGYSITSGYSWHWIRQFPDNKLEWMGYILSRGDTNFNPSLKSRISITRSTSNNQFFLHFNSVTTEDTATYYCARDFFDYWGQGTTLTVSS
VL: DVLMTQTPLSLPVSLGDQASISCRSSQSIVHSNGNTYLEWYLQKPGQSPKLLIYKVSDRFSGVPDRFSGSGSGTDFTLKISRVEAEDLGVYFCFQGSHVPYTFGGGTKLEIK
binding result [3]: no binding (tested: 300 nM or 600 nM) | binding result [1]: no binding (tested: 300 nM or 600 nM) | SPR binding (control subtracted) [2]: 0.6

B6: anti-CD300LB antibody CD-05 (antibody, V domains shown)
VH: QVQLVQSGAEVKKPGASVKVSCKASGYTFSRYYINWVRQAPGQGLEWMGWINPNSGGTNYAQKFQGRVTMTRDTSTSTVYMELSSLRSEDTAVYYCTTDQLRFGKTGPYYGMDVWGQGTTVTVSS
VL: DIQMTQSPSSLSASVGDRVTITCRASQNIGTYLNWYQQKPGKAPKLLIYAASSLQSGVPSRFSGSGSGTDFTLTISSLQPEDFATYYCQQSYSDTLTFGGGTKVEIK
binding result [4]: no binding (tested: 300 nM or 600 nM)

B7: anti-CD300LB antibody CD-01 (antibody, V domains shown)
VH: RVQLQQSGAELVRPGASVTLSCKASGFTFTDFEMHWVKKTPVHGLEWIGAIDPESGNTAYNQKFRGKATLTADKSSSTAYMELRYLTSEDSAVYYCTPLISGADYWGQGTTLTVSS
VL: DVVMTQSPLSLPVSLGDQASISCRSSQSLVHSDGNTYLYWYLQKPGQSPKLLIYKVSNRFSGVPDRFSGSGSGTDFTFKISRVGAEDLGVYFCSQSTHVPWTFGGGTKLEII
binding result [4]: no binding (tested: 300 nM or 600 nM)

B8: anti-CD300LB antibody CD-02 (antibody, V domains shown)
VH: QVQLQQPGAELVRPGSSVKLSCQASGYTFTNYWMHWVRQRPIQGLEWIGNIDPSDSETHYNQKFKDRATLTVDKSSSTAYMQLSSLTSEDSAVYYCARSGVYDDEGGDYWGQGTTLTVSS
VL: ENVLTQSPAIMSASPGEKVTMTCSASSSVSYIHWYQQKSSTSPKLWIYDTSKLASGVPGRFSGSGSGNSYSLTISSMETEDVATYYCFQGSGYPLTFGAGTKLELK
binding result [4]: no binding (tested: 300 nM or 600 nM)

B9: anti-CD300LB antibody CD-03 (antibody, V domains shown)
VH: EVQLQQSGPELVKPGASVKISCKASGYTFTDYYINWVRQSHGKSLECIGDINPNNGGTNYNQKFKGKATLTVDRSSNTAYMEFRSLTFDDSALYYCAAEGAYWGQGTLVTVSA
VL: not shown
binding result [4]: no binding (tested: 300 nM or 600 nM)
